Measured values reported in publication PMC3891831.

T1: GST-MEIOB construct A (Mus musculus, UniProt Q9D513 136-307)
T1 sequence: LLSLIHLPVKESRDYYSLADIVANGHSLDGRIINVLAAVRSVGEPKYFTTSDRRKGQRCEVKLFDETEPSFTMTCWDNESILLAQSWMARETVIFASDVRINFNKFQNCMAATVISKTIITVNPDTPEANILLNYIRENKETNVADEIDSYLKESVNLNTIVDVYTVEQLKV

B1: dsDNA 36 bp (dsDNA)
DNA 1: GTGTGTGTGTGTGTGTGTGTGTGTGTGTGTGTGTGT
DNA 2: ACACACACACACACACACACACACACACACACACAC
B2: 3' flap (30 nt) (dsDNA)
DNA 1: CGATAGTCGGATCCTCTAGACAGCTCCATGGTGTGTGTGTGTGTGTGTGTGTGTGTGTGT
DNA 2: CATGGAGCTGTCTAGAGGATCCGACTATCG
B3: 5' flap (30 nt) (dsDNA)
DNA 1: GTGTGTGTGTGTGTGTGTGTGTGTGTGTGTGGACATCTTTGCCCACCTGCAGGTTCACCC
DNA 2: GGGTGAACCTGCAGGTGGGCAAAGATGTCC

How the values were obtained:
GST-MEIOB construct A [1] = biological target: T1, GST-MEIOB construct A; assay: EMSA
GST-MEIOB construct A [2] = biological target: T1, GST-MEIOB construct A; assay: EMSA; remark: listed apart in the source

Row | Binder | Kd (GST-MEIOB construct A [1]) | binding result (GST-MEIOB construct A [2])
1 | GTGTGTGTGTGTGTGTGTGTGTGTGTGTGTGTGTGT (ssDNA) [d36GT] | 400 nM | –
2 | B1 | – | no binding
3 | B2 | – | binds
4 | B3 | – | binds
